The results in this text go back to publication PMC9352680, “A comprehensive thermodynamic model for RNA binding by the Saccharomyces cerevisiae Pumilio protein PUF4”.

The chains are these.
B1: Ie_S2_P3E.2_K3.1_C3.2_H3.1_[+3TTC]_A3.1_F3.1_T3.2 (ssRNA)
RNA: UUUGAUUAAUAUGAUAUCGUUCUUUCUCUUGUUUCAUAUAUAUUCUUUCUCGAUAUCAUAUUAAUCUUU
B2: Ie_S2_P3E.2_K3.1_C3.2_H3.1_A3.1_F3.1_[+7CCC]_T3.2 (ssRNA)
RNA: UUUGAUUAAUAUGAUAUCGUUCUUUCUCUUGUAUAUCCCAUAUUCUUUCUCGAUAUCAUAUUAAUCUUU
B3: Ie_S2_P3E.2_K3.1_C3.2_H3.1_[+4CCC]_A3.1_F3.1_T3.2 (ssRNA)
RNA: UUUGAUUAAUAUGAUAUCGUUCUUUCUCUUGUACCCUAUAUAUUCUUUCUCGAUAUCAUAUUAAUCUUU
B4: Ie_S2_P3E.2_K3.1_C3.2_H3.1_A3.1_F3.1_[+8TCC]_T3.2 (ssRNA)
RNA: UUUGAUUAAUAUGAUAUCGUUCUUUCUCUUGUAUAUAUCCUAUUCUUUCUCGAUAUCAUAUUAAUCUUU
B5: Ie_S2_P3E.2_K3.1_C3.2_H3.1_A3.1_F3.1_[+7CTC]_T3.2 (ssRNA)
RNA: UUUGAUUAAUAUGAUAUCGUUCUUUCUCUUGUAUAUCUCAUAUUCUUUCUCGAUAUCAUAUUAAUCUUU
B6: Ie_S2_P3E.2_K3.1_C3.2_H3.1_A3.1_F3.1_[+8CTC]_T3.2 (ssRNA)
RNA: UUUGAUUAAUAUGAUAUCGUUCUUUCUCUUGUAUAUACUCUAUUCUUUCUCGAUAUCAUAUUAAUCUUU
B7: Ie_S2_P3E.2_K3.1_C3.2_H3.1_A3.1_F3.1_[+8CCT]_T3.2 (ssRNA)
RNA: UUUGAUUAAUAUGAUAUCGUUCUUUCUCUUGUAUAUACCUUAUUCUUUCUCGAUAUCAUAUUAAUCUUU
B8: Ie_S2_P3E.2_K3.1_C3.2_H3.1_A3.1_F3.1_[+7TTC]_T3.2 (ssRNA)
RNA: UUUGAUUAAUAUGAUAUCGUUCUUUCUCUUGUAUAUUUCAUAUUCUUUCUCGAUAUCAUAUUAAUCUUU
B9: Ie_S2_P3E.2_K3.1_C3.2_H3.1_A3.1_F3.1_[+7TCC]_T3.2 (ssRNA)
RNA: UUUGAUUAAUAUGAUAUCGUUCUUUCUCUUGUAUAUUCCAUAUUCUUUCUCGAUAUCAUAUUAAUCUUU
B10: Ie_S2_P3E.2_K3.1_C3.2_H3.1_[+4CCT]_A3.1_F3.1_T3.2 (ssRNA)
RNA: UUUGAUUAAUAUGAUAUCGUUCUUUCUCUUGUACCUUAUAUAUUCUUUCUCGAUAUCAUAUUAAUCUUU
B11: Ie_S2_P3E.2_K3.1_C3.2_H3.1_[+4CTT]_A3.1_F3.1_T3.2 (ssRNA)
RNA: UUUGAUUAAUAUGAUAUCGUUCUUUCUCUUGUACUUUAUAUAUUCUUUCUCGAUAUCAUAUUAAUCUUU
B12: Ie_S2_P3E.2_K3.1_C3.2_H3.1_A3.1_F3.1_[+8CCC]_T3.2 (ssRNA)
RNA: UUUGAUUAAUAUGAUAUCGUUCUUUCUCUUGUAUAUACCCUAUUCUUUCUCGAUAUCAUAUUAAUCUUU
B13: Ie_S2_P3E.2_K3.1_C3.2_H3.1_[+3CCTC]_A3.1_F3.1_T3.2 (ssRNA)
RNA: UUUGAUUAAUAUGAUAUCGUUCUUUCUCUUGUCCUCAUAUAUAUUCUUUCUCGAUAUCAUAUUAAUCUUU
B14: Ie_S2_P3E.2_K3.1_C3.2_H3.1_[+4CCCT]_A3.1_F3.1_T3.2 (ssRNA)
RNA: UUUGAUUAAUAUGAUAUCGUUCUUUCUCUUGUACCCUUAUAUAUUCUUUCUCGAUAUCAUAUUAAUCUUU
B15: Ie_S2_P3E.2_K3.1_C3.2_H3.1_[+4CCTC]_A3.1_F3.1_T3.2 (ssRNA)
RNA: UUUGAUUAAUAUGAUAUCGUUCUUUCUCUUGUACCUCUAUAUAUUCUUUCUCGAUAUCAUAUUAAUCUUU
B16: Ie_S2_P3E.2_K3.1_C3.2_H3.1_[+4CTCT]_A3.1_F3.1_T3.2 (ssRNA)
RNA: UUUGAUUAAUAUGAUAUCGUUCUUUCUCUUGUACUCUUAUAUAUUCUUUCUCGAUAUCAUAUUAAUCUUU
B17: Ie_S2_P3E.2_K3.1_C3.2_H3.1_[+3CCCT]_A3.1_F3.1_T3.2 (ssRNA)
RNA: UUUGAUUAAUAUGAUAUCGUUCUUUCUCUUGUCCCUAUAUAUAUUCUUUCUCGAUAUCAUAUUAAUCUUU
B18: Ie_S2_P3E.2_K3.1_C3.2_H3.1_[+3CTCTC]_A3.1_F3.1_T3.2 (ssRNA)
RNA: UUUGAUUAAUAUGAUAUCGUUCUUUCUCUUGUCUCUCAUAUAUAUUCUUUCUCGAUAUCAUAUUAAUCUUU
B19: Ie_S2_P3E.2_K3.1_C3.2_H3.1_[+3CCCTT]_A3.1_F3.1_T3.2 (ssRNA)
RNA: UUUGAUUAAUAUGAUAUCGUUCUUUCUCUUGUCCCUUAUAUAUAUUCUUUCUCGAUAUCAUAUUAAUCUUU
B20: Ie_S2_P3E.2_K3.1_C3.2_H3.1_[+4CCCTT]_A3.1_F3.1_T3.2 (ssRNA)
RNA: UUUGAUUAAUAUGAUAUCGUUCUUUCUCUUGUACCCUUUAUAUAUUCUUUCUCGAUAUCAUAUUAAUCUUU
B21: Ie_S2_P3E.2_K3.1_C3.2_H3.1_[+3TTCCT]_A3.1_F3.1_T3.2 (ssRNA)
RNA: UUUGAUUAAUAUGAUAUCGUUCUUUCUCUUGUUUCCUAUAUAUAUUCUUUCUCGAUAUCAUAUUAAUCUUU
B22: Ie_S2_P3E.2_K3.1_C3.2_H3.1_[+4C]_A3.1_F3.1_T3.2 (ssRNA)
RNA: UUUGAUUAAUAUGAUAUCGUUCUUUCUCUUGUACUAUAUAUUCUUUCUCGAUAUCAUAUUAAUCUUU
B23: Ie_S2_P3E.2_K3.1_C3.2_H3.1_A3.1_F3.1_[+7C]_T3.2 (ssRNA)
RNA: UUUGAUUAAUAUGAUAUCGUUCUUUCUCUUGUAUAUCAUAUUCUUUCUCGAUAUCAUAUUAAUCUUU
B24: Ie_S2_P3E.2_K3.1_C3.2_H3.1_A3.1_F3.1_[+8T]_T3.2 (ssRNA)
RNA: UUUGAUUAAUAUGAUAUCGUUCUUUCUCUUGUAUAUAUUAUUCUUUCUCGAUAUCAUAUUAAUCUUU
B25: Ie_S2_P3E.2_K3.1_C3.2_H3.1_A3.1_[+6C]_F3.1_T3.2 (ssRNA)
RNA: UUUGAUUAAUAUGAUAUCGUUCUUUCUCUUGUAUACUAUAUUCUUUCUCGAUAUCAUAUUAAUCUUU
B26: Ie_S2_P3E.2_K3.1_C3.2_H3.1_A3.1_[+5T]_F3.1_T3.2 (ssRNA)
RNA: UUUGAUUAAUAUGAUAUCGUUCUUUCUCUUGUAUUAUAUAUUCUUUCUCGAUAUCAUAUUAAUCUUU
B27: Ie_S2_P3E.2_K3.1_C3.2_H3.1_A3.1_[+5C]_F3.1_T3.2 (ssRNA)
RNA: UUUGAUUAAUAUGAUAUCGUUCUUUCUCUUGUAUCAUAUAUUCUUUCUCGAUAUCAUAUUAAUCUUU
B28: Ie_S2_P3E.2_K3.1_C3.2_H3.1_A3.1_F3.1_[+8C]_T3.2 (ssRNA)
RNA: UUUGAUUAAUAUGAUAUCGUUCUUUCUCUUGUAUAUACUAUUCUUUCUCGAUAUCAUAUUAAUCUUU
B29: Ie_S2_P3E.2_K3.1_C3.2_H3.1_[+4CC]_A3.1_F3.1_T3.2 (ssRNA)
RNA: UUUGAUUAAUAUGAUAUCGUUCUUUCUCUUGUACCUAUAUAUUCUUUCUCGAUAUCAUAUUAAUCUUU
B30: Ie_S2_P3E.2_K3.1_C3.2_H3.1_A3.1_F3.1_[+7CC]_T3.2 (ssRNA)
RNA: UUUGAUUAAUAUGAUAUCGUUCUUUCUCUUGUAUAUCCAUAUUCUUUCUCGAUAUCAUAUUAAUCUUU
B31: Ie_S2_P3E.2_K3.1_C3.2_H3.1_A3.1_F3.1_[+7CT]_T3.2 (ssRNA)
RNA: UUUGAUUAAUAUGAUAUCGUUCUUUCUCUUGUAUAUCUAUAUUCUUUCUCGAUAUCAUAUUAAUCUUU
B32: Ie_S2_P3E.2_K3.1_C3.2_H3.1_A3.1_F3.1_[+8TT]_T3.2 (ssRNA)
RNA: UUUGAUUAAUAUGAUAUCGUUCUUUCUCUUGUAUAUAUUUAUUCUUUCUCGAUAUCAUAUUAAUCUUU
B33: Ie_S2_P3E.2_K3.1_C3.2_H3.1_A3.1_[+5CT]_F3.1_T3.2 (ssRNA)
RNA: UUUGAUUAAUAUGAUAUCGUUCUUUCUCUUGUAUCUAUAUAUUCUUUCUCGAUAUCAUAUUAAUCUUU
B34: Ie_S2_P3E.2_K3.1_C3.2_H3.1_A3.1_F3.1_[+8CT]_T3.2 (ssRNA)
RNA: UUUGAUUAAUAUGAUAUCGUUCUUUCUCUUGUAUAUACUUAUUCUUUCUCGAUAUCAUAUUAAUCUUU
B35: Ie_S2_P3E.2_K3.1_C3.2_H3.1_A3.1_[+5CC]_F3.1_T3.2 (ssRNA)
RNA: UUUGAUUAAUAUGAUAUCGUUCUUUCUCUUGUAUCCAUAUAUUCUUUCUCGAUAUCAUAUUAAUCUUU
B36: Ie_S2_P3E.2_K3.1_C3.2_H3.1_A3.1_F3.1_[+8TC]_T3.2 (ssRNA)
RNA: UUUGAUUAAUAUGAUAUCGUUCUUUCUCUUGUAUAUAUCUAUUCUUUCUCGAUAUCAUAUUAAUCUUU
B37: Ic_S2_P3E.1_K3.1_C3.1_H3.1_A3.1_[A6T]_F3.1_[T7A]_T3.1 (ssRNA)
RNA: UUUGAUUAAUAUGAUAUCGUUCUUUCUUGUAUUAAUUCUUUCUCGAUAUCAUAUUAAUCUUU
B38: Ib_S2_P3E.1_K3.1_C3.1_H3.1_A3.1_[T5C]_F3.1_[A8T]_T3.1 (ssRNA)
RNA: UUUGAUUAAUAUGAUAUCGUUCUUUCUUGUACAUUUUCUUUCUCGAUAUCAUAUUAAUCUUU
B39: Ic_S2_P3E.1_K3.1_C3.1_H3.1_A3.1_[T5C]_F3.1_[A8G]_T3.1 (ssRNA)
RNA: UUUGAUUAAUAUGAUAUCGUUCUUUCUUGUACAUGUUCUUUCUCGAUAUCAUAUUAAUCUUU
B40: Ic_S2_P3E.1_K3.1_C3.1_H3.1_A3.1_[T5C]_F3.1_[A8C]_T3.1 (ssRNA)
RNA: UUUGAUUAAUAUGAUAUCGUUCUUUCUUGUACAUCUUCUUUCUCGAUAUCAUAUUAAUCUUU
B41: Ia_S2_P3E.1_K3.1_C3.1_H3.1_[G2T]_A3.1_F3.1_T3.1 (ssRNA)
RNA: UUUGAUUAAUAUGAUAUCGUUCUUUCUUUUAUAUAUUCUUUCUCGAUAUCAUAUUAAUCUUU

This series has as its target T1, PUF4 RNA-binding domain (Saccharomyces cerevisiae, UniProt P25339 537-888).
T1 sequence: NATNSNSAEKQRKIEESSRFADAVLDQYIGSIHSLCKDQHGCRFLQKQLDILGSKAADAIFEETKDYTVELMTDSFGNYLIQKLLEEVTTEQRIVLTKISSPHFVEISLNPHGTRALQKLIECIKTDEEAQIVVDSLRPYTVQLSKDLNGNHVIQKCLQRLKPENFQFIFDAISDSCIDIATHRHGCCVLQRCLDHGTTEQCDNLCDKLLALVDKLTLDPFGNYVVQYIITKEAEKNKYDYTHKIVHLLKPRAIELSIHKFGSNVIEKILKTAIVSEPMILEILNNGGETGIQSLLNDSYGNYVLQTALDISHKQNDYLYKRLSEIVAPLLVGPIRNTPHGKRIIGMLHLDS
In words: Mg; RNA-MaP; 20 mM Na-HEPES pH 7.4, 30 mM KOAc, 0.75 mM MgCl2, 0.1% Tween-20, 5% glycerol, 0.1 mg/mL BSA, 2 mM DTT; 25 C; 0.0125-409.6 nM protein. Conditions: tags: N-His6-TEV cleaved; C-SNAP kept, Cy3B-labelled; label: tethered on chip by stalled RNA polymerase.
By Kd is commonly meant a measure of binding affinity in units of concentration. Read a high Kd as lower affinity. B1 displayed an equilibrium dissociation constant (Kd) of 8.9 nM. The figure for B2 is 19.5 nM; for B3 it is 1.82 nM. The same measure for B4: 2.84 nM. The same measure for B5: 14 nM. For the molecule B6, binding was put at a Kd of 5.33 nM. This Kd lies about 2.6-fold lower than the previous one. B7 returned an equilibrium dissociation constant (Kd) of 2.8 nM. This Kd is about 1.9-fold lower than that of the molecule before.

In turn, B8 showed a Kd of 9.85 nM. In turn, B9 registered an equilibrium dissociation constant (Kd) of 6.48 nM. With B10, the Kd was 1.4 nM.

B11: the Kd was determined as 1.08 nM. The figure for B12 is 7.81 nM; for B13 it is 62.8 nM. B14 gave a Kd of 2.61 nM. In turn, B15 had an equilibrium dissociation constant (Kd) of 4.82 nM.

The molecule B16 had a Kd of 3.27 nM. The figure for B17 is 30.4 nM; for B18 it is 76.4 nM. The same measure for B19: 35.7 nM; for B20: 6.09 nM. The figure for B21 is 19.1 nM. With B22, binding was put at a Kd of 0.5 nM. Regarding B23, the Kd was determined as 5.11 nM. Against the preceding molecule, the Kd is about 10-fold higher. The figure for B24 is 1.66 nM; for B25 it is 0.437 nM; for B26 it is 1.52 nM.

Take B27: the Kd was found to be 0.639 nM. On to B28, for which the equilibrium dissociation constant (Kd) was 2.93 nM. This Kd is about 4.6-fold higher than that of the molecule before. As for B29, the equilibrium dissociation constant (Kd) was 2.33 nM. The same measure for B30: 17.5 nM. For B31, the affinity, expressed as Kd, was 3.3 nM. The same measure for B32: 1.56 nM.

On to B33, for which the equilibrium dissociation constant (Kd) worked out at 3.75 nM. For B34, the Kd was 3.03 nM. The figure for B35 is 7.04 nM; for B36 it is 2.05 nM; for B37 it is 56.9 nM. In turn, B38 registered a Kd of 1.62 nM. For the molecule B39, the dissociation constant Kd was 10.4 nM. The same measure for B40: 11.1 nM. The same measure for B41: 366 nM.
